# The RNAGym collection of RNA variant scans (doi:10.7554/elife.80360)
# B1: HDV Ribozyme (parent)
# chain: GGCCGGCAUGGUCCCAGCCUCCUCGCUGGCGCCGGCUGGGCAACAUUCCGAGGGGACCGUCCCCUCGGUAAUGGCGAAUGGGACCCA
# Variants of: B1
# Test: self-cleavage, relative activity (ratio to wild type); higher = more cleavage; co-transcriptional
row,Variant,self-cleavage
1,U12A G53U,0.318
2,U12A G54U,0.415
3,U12A G55A,0.415
4,U12A G55U,0.185
5,U12A G59A,0.172
6,U12A G68A,0.155
7,U12A G68U,0.312
8,U12A G74U,0.101
9,U12A G80U,0.0968
10,U12A G81A,0.0554
11,U12A G82A,0.0489
12,U12A U23A,0.192
13,U12A U37G,0.0536
14,U12A U65G,0
15,U12A U69C,0.35
16,U12A U69G,0.795
17,U12A U72C,0.277
18,U12C,0.399
19,U12C A16C,0.302
20,U12C A16U,1.05
21,U12C A42C,0.0489

row,Variant,self-cleavage
1,U12C A70G,0.692
2,U12C A71C,0.0831
3,U12C A71G,0.287
4,U12C A77G,0.302
5,U12C A77U,0.289
6,U12C A83C,0.166
7,U12C A83G,0.85
8,U12C C22G,0
9,U12C C30A,0.193
10,U12C C30U,0.156
11,U12C C32A,0.256
12,U12C C33A,0.0386
13,U12C C36G,0.128
14,U12C C41A,0.388
15,U12C C41U,0.415
16,U12C C48U,0.534
17,U12C C49A,0.322
18,U12C C49G,0.199
19,U12C C49U,0.166
20,U12C C57A,0.268
21,U12C C58A,0.475

row,Variant,self-cleavage
1,U12C C61G,0.32
2,U12C C61U,0.404
3,U12C C64G,0.308
4,U12C C84G,0.391
5,U12C C85G,0.447
6,U12C C86U,0.578
7,U12C G17A,0.312
8,U12C G25U,0.0369
9,U12C G28A,0.0707
10,U12C G28C,0
11,U12C G34C,0.115
12,U12C G35C,0.0923
13,U12C G39U,0.0723
14,U12C G40C,0.0405
15,U12C G52C,0.287
16,U12C G53C,0.332
17,U12C G54C,0.356
18,U12C G55C,0.447
19,U12C G59A,0.185
20,U12C G73U,0.0811
21,U12C G76A,0.344

row,Variant,self-cleavage
1,U12C G76C,0.364
2,U12C G80A,0.243
3,U12C G80C,0.104
4,U12C G80U,0.18
5,U12C G82C,0.0504
6,U12C U20A,0.0723
7,U12C U23A,0.0594
8,U12C U46A,0
9,U12C U46G,0.0665
10,U12C U47C,0.185
11,U12C U60C,0.594
12,U12C U60G,0.399
13,U12C U72C,0.196
14,U12G,0.922
15,U12G A16C,0.831
16,U12G A16U,0.795
17,U12G A42G,0.369
18,U12G A42U,0.415
19,U12G A45G,0.959
20,U12G A51U,1.13
21,U12G A56C,0.831
